We go through 24 molecules from patent publication US20220177579A1 (published 2022).

T1: human CD19 on CD19(+) NALM6 acute lymphoid leukemia cells (UniProt P15391 20-556)
T1 chain: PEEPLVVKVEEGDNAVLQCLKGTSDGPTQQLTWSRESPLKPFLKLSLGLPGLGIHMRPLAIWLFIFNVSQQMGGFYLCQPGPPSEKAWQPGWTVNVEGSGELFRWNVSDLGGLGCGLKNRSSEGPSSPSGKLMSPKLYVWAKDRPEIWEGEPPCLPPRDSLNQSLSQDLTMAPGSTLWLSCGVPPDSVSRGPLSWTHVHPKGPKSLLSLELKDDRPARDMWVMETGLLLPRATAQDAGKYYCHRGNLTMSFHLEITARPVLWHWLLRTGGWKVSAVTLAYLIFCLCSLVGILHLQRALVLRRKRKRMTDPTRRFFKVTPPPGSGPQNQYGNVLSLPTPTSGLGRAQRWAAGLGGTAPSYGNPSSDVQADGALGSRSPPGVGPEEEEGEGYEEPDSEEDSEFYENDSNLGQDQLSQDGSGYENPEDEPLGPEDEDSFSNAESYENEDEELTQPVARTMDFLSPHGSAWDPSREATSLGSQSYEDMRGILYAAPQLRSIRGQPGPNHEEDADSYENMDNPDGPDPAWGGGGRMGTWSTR

B1: L2+H8b (antibody, V domains shown)
VH: QVQLQESGPGLVKPSETLSVTCTVSGVSLPDYGVSWIRQPPGKGLEWIGVIWGSETTYYNPSLKSRLTISKDTSKNQFSLKLSSVTAADTAVYYCAKHYYYGGSYAMDYWGQGTSVTVSS
VL: DIQMTQSPSSLSASVGDRVTITCQASQDISKYLNWYQQKPGKAVKLLIYHTSRLHSGVPSRFSGSGSGTDYTLTISSLQPEDIATYFCQQGNTLPYTFGGGTKLEIT
B2: L1+H2b (antibody, V domains shown)
VH: B1 VH with V20L, I48L, Y58N, L67V, V85L
VL: B1 VL with Q24R, S56T
B3: L2+H2b (antibody, V domains shown)
VH: B1 VH with V20L, I48L, Y58N, L67V, V85L
VL: B1 VL
B4: L3+H7b (antibody, V domains shown)
VH: B1 VH with V20L, L67V, N76S, L82M
VL: B1 VL with P8T, Q24R, L73F, F87Y
B5: L1+H6b (antibody, V domains shown)
VH: B1 VH with V20L, I48L, L67V, K71V, T73N
VL: B1 VL with Q24R, S56T
B6: L3+H8b (antibody, V domains shown)
VH: B1 VH
VL: B1 VL with P8T, Q24R, L73F, F87Y
B7: L2+H7b (antibody, V domains shown)
VH: B1 VH with V20L, L67V, N76S, L82M
VL: B1 VL
B8: L3+H4 (antibody, V domains shown)
VH: B1 VH with V20L, Y58N, L67V, K71V, T73N, V85L
VL: B1 VL with P8T, Q24R, L73F, F87Y
B9: L1+H3 (antibody, V domains shown)
VH: B1 VH with V20L, Y58N, K71V, L82M
VL: B1 VL with Q24R, S56T
B10: L2+H3 (antibody, V domains shown)
VH: B1 VH with V20L, Y58N, K71V, L82M
VL: B1 VL
B11: L2+H5b (antibody, V domains shown)
VH: B1 VH with V20L, Y58N, L67V, N76S, F78V
VL: B1 VL
B12: L1+H8b (antibody, V domains shown)
VH: B1 VH
VL: B1 VL with Q24R, S56T
B13: L3+H3 (antibody, V domains shown)
VH: B1 VH with V20L, Y58N, K71V, L82M
VL: B1 VL with P8T, Q24R, L73F, F87Y
B14: L3+H2b (antibody, V domains shown)
VH: B1 VH with V20L, I48L, Y58N, L67V, V85L
VL: B1 VL with P8T, Q24R, L73F, F87Y
B15: L2+H6b (antibody, V domains shown)
VH: B1 VH with V20L, I48L, L67V, K71V, T73N
VL: B1 VL
B16: L3+H6b (antibody, V domains shown)
VH: B1 VH with V20L, I48L, L67V, K71V, T73N
VL: B1 VL with P8T, Q24R, L73F, F87Y
B17: L1+H4 (antibody, V domains shown)
VH: B1 VH with V20L, Y58N, L67V, K71V, T73N, V85L
VL: B1 VL with Q24R, S56T
B18: L3+H5b (antibody, V domains shown)
VH: B1 VH with V20L, Y58N, L67V, N76S, F78V
VL: B1 VL with P8T, Q24R, L73F, F87Y
B19: L1+H1b (antibody, V domains shown)
VH: B1 VH with L67V, K71V, F78V
VL: B1 VL with Q24R, S56T
B20: L3+H1b (antibody, V domains shown)
VH: B1 VH with L67V, K71V, F78V
VL: B1 VL with P8T, Q24R, L73F, F87Y
B21: L1+H7b (antibody, V domains shown)
VH: B1 VH with V20L, L67V, N76S, L82M
VL: B1 VL with Q24R, S56T
B22: L2+H4 (antibody, V domains shown)
VH: B1 VH with V20L, Y58N, L67V, K71V, T73N, V85L
VL: B1 VL
B23: L1+H5b (antibody, V domains shown)
VH: B1 VH with V20L, Y58N, L67V, N76S, F78V
VL: B1 VL with Q24R, S56T
B24: CD19-BsAb BC250 (hFMC63 VL-2/VH-1b x CD3 IgG-scFv bispecific antibody) (bispecific antibody)
heavy: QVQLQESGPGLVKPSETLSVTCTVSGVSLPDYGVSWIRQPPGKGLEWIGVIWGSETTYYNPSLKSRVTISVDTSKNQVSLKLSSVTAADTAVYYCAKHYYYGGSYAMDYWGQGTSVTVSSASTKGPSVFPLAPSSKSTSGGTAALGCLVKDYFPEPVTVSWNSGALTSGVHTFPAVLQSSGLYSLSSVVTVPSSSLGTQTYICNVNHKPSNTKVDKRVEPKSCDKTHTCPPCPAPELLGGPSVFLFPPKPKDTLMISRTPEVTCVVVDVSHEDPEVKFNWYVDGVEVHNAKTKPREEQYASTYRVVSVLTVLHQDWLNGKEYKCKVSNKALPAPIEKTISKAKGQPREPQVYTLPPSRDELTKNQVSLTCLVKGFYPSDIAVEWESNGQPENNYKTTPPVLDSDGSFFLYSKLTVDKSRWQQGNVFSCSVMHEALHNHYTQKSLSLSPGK
light: DIQMTQSPSSLSASVGDRVTITCQASQDISKYLNWYQQKPGKAVKLLIYHTSRLHSGVPSRFSGSGSGTDYTLTISSLQPEDIATYFCQQGNTLPYTFGGGTKLEITRTVAAPSVFIFPPSDEQLKSGTASVVCLLNNFYPREAKVQWKVDNALQSGNSQESVTEQDSKDSTYSLSSTLTLSKADYEKHKVYACEVTHQGLSSPVTKSFNRGECTSGGGGSGGGGSGGGGSQVQLVQSGGGVVQPGRSLRLSCKASGYTFTRYTMHWVRQAPGKCLEWIGYINPSRGYTNYNQKFKDRFTISRDNSKNTAFLQMDSLRPEDTGVYFCARYYDDHYSLDYWGQGTPVTVSSGGGGSGGGGSGGGGSGGGGSGGGGSGGGGSDIQMTQSPSSLSASVGDRVTITCSASSSVSYMNWYQQTPGKAPKRWIYDTSKLASGVPSRFSGSGSGTDYTFTISSLQPEDIATYYCQQWSSNPFTFGCGTKLQITR

Positions count from the first letter of the chain named.

As a reminder, the EC50 is the concentration at which the effect is half-maximal. Low readings indicate greater potency, high ones weaker potency.

This assay has as its target T1, human CD19 on CD19(+) NALM6 acute …. Kind of assay: FACS. In general terms: In flow cytometry, cells or beads pass a laser one at a time.
Regarding B1, it took 0.1 µg/mL to reach a half-maximal effect (EC50).
In turn, B2 registered an EC50 of 0.23 µg/mL. Against the preceding molecule, the EC50 is about 2.3-fold higher.
For B3 the value was 0.17 µg/mL; for B4, 0.08 µg/mL; for B5, 0.08 µg/mL.
As for B6, the figure is 0.19 µg/mL; as for B7, 0.06 µg/mL.
The molecule B8 came in with an EC50 of 0.42 µg/mL.
Regarding B9, the midpoint of the response, the EC50, lay at 0.37 µg/mL.
As to B10, the EC50 came to 0.41 µg/mL.
Molecule B11 showed an EC50 of 0.19 µg/mL.
Molecule B12 registered a concentration giving a half-maximal response (EC50) of 0.13 µg/mL.
The molecule B13 displayed an EC50 of 0.64 µg/mL.
For B14, the EC50 came to 0.28 µg/mL. Compared with the last molecule, the EC50 is about 2.3-fold lower.
Regarding B15, the EC50 worked out at 0.08 µg/mL. This EC50 lies about 3.5-fold lower than the previous one.
On to B16, for which a half-maximal response (EC50) required 0.13 µg/mL.
B17: a half-maximal effect (EC50) was put at 0.25 µg/mL. This EC50 lies about 1.9-fold higher than the previous one.
B18 returned an EC50 of 0.28 µg/mL.
As for B19, the figure is 0.13 µg/mL; as for B20, 0.19 µg/mL.
For B21 the value was 0.07 µg/mL; for B22, 0.27 µg/mL; for B23, 0.18 µg/mL.
Molecule B24 showed an EC50 of 0.1 µg/mL.
